Test results reported in paper PMC10865995.

Experiments:
Experiment in all cases: EMSA
SRSF1 wild type = SRSF1 wild type (human, UniProt Q07955 1-248)
SRSF1 E60D = SRSF1 E60D (human, UniProt Q07955 1-248, E60D)
SRSF1 P89S = SRSF1 P89S (human, UniProt Q07955 1-248, P89S)
Sequence of SRSF1 P89S (Q07955 whole entry P89S): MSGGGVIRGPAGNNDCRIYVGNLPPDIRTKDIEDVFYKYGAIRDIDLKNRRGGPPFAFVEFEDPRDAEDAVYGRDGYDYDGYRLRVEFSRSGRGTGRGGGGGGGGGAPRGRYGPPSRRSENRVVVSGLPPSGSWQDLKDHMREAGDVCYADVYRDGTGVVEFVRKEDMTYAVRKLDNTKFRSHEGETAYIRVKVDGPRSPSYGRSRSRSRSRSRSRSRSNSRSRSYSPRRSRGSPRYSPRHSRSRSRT

Sequence of SRSF1 wild type (Q07955 whole entry): as the sequence (Q07955 whole entry P89S) above, with S89P counted along it
Sequence of SRSF1 E60D (Q07955 whole entry E60D): as the sequence (Q07955 whole entry P89S) above, with E60D, S89P counted along it

B1: ssRNA (64mer) (ssRNA)
RNA: UUUCCCAGCACCAGAUUCAGCAUACGUUACCGAUCGUACGUUCGAUGCUGGCUACUGCUAGCUU
B1: binds (SRSF1 wild type); binds (SRSF1 E60D); no binding (SRSF1 P89S).
